B1: P. thracensis MukE as subunit of wild-type MukBEF (natural protein, Photorhabdus thracensis)
chain: MSSTHIEQFMPVKLAQALANSLFPELDSQLRAGRHIGIDDLDNHAFLMDFQEQLEEFYARYNVELIRAPEGFFYLRPRSTTLIPRSVLSELDMMVGKILCYLYLSPERLANQGIFTSQELYEELISLADEGKLMKFVNQRSSGSDLDKQKLQEKVRTTLNRLRRLGMVYFLPNNNNKFTITEAVFRFGADVRSGDDPREIQLRMIRDGEAMPVEGSLSLDDSENDETPDNSAEGAGDEQP
notes: Photorhabdus thracensis MukE; the MukE chain of m14; source: E. coli BL21-Gold(DE3), co-expressed as MukBEF from pFB403, purified
B2: T7 gp5.9, purified from insect cells (natural protein, bacteriophage T7)
chain: MSRDLVTIPRDVWNDIQGYIDSLERENDSLKNQLMEADEYVAELEEKLNGTS
notes: bacteriophage T7 gp5.9; histidine tag removed with 3C protease; Used as 'gp5.9 dimers' in SEC; source: Hi5 insect cells, purified (Talon, 3C cleavage, HisTrap, MonoQ)

Legend:
[1] = target: the molecule itself; assay: cryo-EM structure; wild-type P. thracensis MukBEF dimers 150 nM with nicked plasmid pFB526 and 5 mM ATP, 10 mM MgCl2, pH 7.0, optionally with Na3VO4 or BeSO4/NaF; datasets pooled
[2] = target: the molecule itself; assay: cryo-EM structure; E. coli MukEF 1 μM mixed with 4 μM gp5.9 in 20 mM Tris, 200 mM NaCl, 0.5 mM TCEP, 0.05 % β-octyl glucoside, pH 7.4, on ice

| Protein | stoichiometry N [1] | stoichiometry N [2] |
| --- | --- | --- |
| B1 | 2 |  |
| B2 |  | 2 |
